This is an account of results in patent US20060134801A1, “Methods and compositions involving MDA-7” (Board of Regents, The University of Texas System, priority 2003, published 2006).

Format in all cases: cell-based, human
Data set [1] concerns HUVEC. The data set can be described thus: Endothelial cell migration assay (Transwell, VEGF). Conditions: VEGF 100 ng/ml. The procedure: Cell migration assays were performed using HUVEC. Cells were starved overnight in basal medium containing 0.5% fetal bovine serum, collected, resuspended in the same medium, and seeded at a concentration of 10^5 cells/well on the upper surface of a 24-well transwell insert with a pore size of 8 μm (Millipore, Cambridge, Mass.). The insert was placed in a six-well plate that contained medium plus PBS, medium plus VEGF (100 ng/ml) or VEGF plus sMDA-7 (10 or 50 ng/ml). The plates containing the transwell insert were incubated at 37° C. overnight to allow migration. The next day, the wells were disassembled, membranes were fixed in crystal violet, and the number of cells that had migrated to the lower wells was counted under high-power magnification (×40).

The test system of data set [2] is STAT-3. Kind of data set: STAT-3 activation, western blot and immunofluorescence. Conditions: HUVEC; 10 ng/ml; 4 h to 24 h. The procedure:
Therefore, studies were conducted to determine the activation of STAT-3 expression in endothelial cells after treatment with sMDA-7. HUVEC were seeded in 6-well plates (5×10^5 cells/well) and treated with sMDA-7 (10 ng/ml). Untreated cells served as negative controls. Cells were harvested at 4 h and 24 h after treatment and analyzed for STAT-3 expression by western blot analysis as previously described (Mhashilkar et al., 2001; Pataer et al., 2002). […] (pSTAT-3) protein was detected using rabbit anti-human pSTAT-3 antibody (1:1000, Cell Signaling Technology, Beverly, Mass.) and horseradish peroxidase-labeled secondary antibody (Amersham Biosciences, Piscataway, N.J.). Finally, the proteins were visualized on enhanced chemiluminescence film (Hyperfilm, Amersham Biosciences, Piscataway, N.J.) by application of Amersham's enhanced chemiluminescence western blotting detection system. STAT-3 protein expression level was quantitated after normalization with total STAT-3 protein expression using Image Quant software (Molecular Dynamics, Amersham Pharmacia Biotech, Piscataway, N.J.).
Activation of STAT-3 was also determined by immunofluorescence assay. […] Pictures were taken through a fluorescence microscope 1-2 h after staining.
In general terms: In western blotting, separated proteins are transferred to a membrane and probed.

Data set [3] relates to melanoma cell lines. Kind of data set: Trypan blue viability, melanoma cell lines (panel). The source says:
rhMDA-7 (IL-24) protein was purified from 293-mda7 cells using affinity chromatography. Various lots of protein ranged from 30% ->80% purity based upon silver stain. The rhMDA-7 protein was applied to melanoma cell lines, and cells assessed for viability using the Trypan blue assay. […] Treatment of melanoma cells with rhMDA-7 results in rapid activation (via phosphorylation) of STAT3. The cytotoxicity observed in melanoma cells is inhibited by anti-MDA-7 antibodies.
(§1) The mechanism of the anti-tumor activity of rhMDA-7 was also evaluated. Melanoma cells were treated with rhMDA-7 protein and assessed for apoptosis using the TUNEL assay. […] These studies were performed with purified rhMDA-7 protein. The melanoma cells have also been treated with supernatant from 293-mda7 cells or control 293 cells. Only the 293-mda7 supernatant causes cell killing.

Data set [4] has as its system A375.S2. Kind of data set: TUNEL apoptosis assay. Conditions: 40 ng/ml, 3 days. The procedure:
as §1

For data set [5], the system named is A375. The data set can be described thus: TUNEL apoptosis assay. Conditions: 40 ng/ml, 3 days. The protocol:
as §1

The test system of data set [6] is MeWo. Kind of data set: TUNEL apoptosis assay. Conditions: 40 ng/ml, 3 days. The procedure:
as §1

Data set [7] has as its system SK-Mel-1. Kind of data set: TUNEL apoptosis assay. Conditions: 40 ng/ml, 3 days. The procedure:
as §1

The subject of data set [8] is WM35. Kind of data set: TUNEL apoptosis assay. Particulars: 40 ng/ml, 3 days. The procedure: as §1
Data set [9] has as its system WM793. Kind of data set: TUNEL apoptosis assay. Particulars: 40 ng/ml, 3 days. The procedure:
as §1

The subject of data set [10] is iNOS. The data set can be described thus: iNOS expression in melanoma cell lines (immunostaining of cytospins). Particulars: A375; 48 h. More on the design: dose or concentration left out as unconfirmed. The procedure:
Replication-deficient human type 5 adenovirus (Ad5) carrying the mda-7 gene was obtained from Introgen Therapeutics (Houston, Tex.). The mda-7 gene was linked to an internal CMV-EE promoter and followed by SV40 polyadenylation. Ad-Luc and Ad-CMV polyadenylation (luciferase and empty vector, respectively), were used as control viruses. Cells were plated 1 day before infection. […] Experimental conditions were optimized to achieve MDA-7 protein expression by >70% of cells, based on results of immunohistochemical staining.
[…] At baseline, these melanoma cell lines express high levels of iNOS and are negative for MDA-7. Forty-eight h after vector treatment, the cells were collected, and cytospins were prepared to analyze iNOS expression. […] It has been shown previously that MDA-7 is secreted by Ad-mda7-infected melanoma cells (Lebedova et al., 2002; Mhashilkar et al., 2001).

Data set [11] concerns A549 and H1299. The data set can be described thus: Effect of secreted MDA-7 protein on lung cancer cells. The protocol:
The number of apoptotic cells was measured by propidium iodide staining and FACS analysis. Cells were harvested, pelleted by centrifugation and resuspended in phosphate-buffered saline containing 50 μg/ml propidium iodide, 0.1% Triton X-100, and 0.1% sodium citrate. Samples were stored at 4° C. for 1-3 hours and vortexed prior to FACS analysis (Becton-Dickenson FACScan, Mountain View, Calif.; FL-3 channel).

B1: sMDA-7: soluble secreted human MDA-7 (IL-24) protein purified from stably transfected 293-mda-7 cells (protein)
chain: AQGQEFHFGPCQVKGVVPQKLWEAFWAVKDTMQAQDNITSARLLQQEVLQNVSDAESCYLVHTLLEFYLKTVFKNYHNRTVEVRTLKSFSTLANNFVLIVSQLQPSQENEMFSIRDSAHRRFLLFRRAFKQLDVEAALTKALGEVDILLTWMQKFYKL
As for B1, in data set [1], the “concentration giving complete inhibition of migration” value was 50 ng/mL. Moreover, the “endothelial cell migration in response to VEGF” value in data set [1] is given as “inhibited endothelial cell migration significantly”. For the same molecule, the “increase in pSTAT-3 expression over PBS treated control” value in [2] is 2-3 times. The “death in melanoma cells” value in data set [3] (0-20 ng/ml, 4 days) was “dose-dependent death”. Also, the “melanoma lines showing cytotoxicity” value in [3] (40 ng/ml for 3 days) was 5 of 6. In addition, the “% TUNEL Positive” value in data set [4] is given as 12.3%; in data set [5], 18.78%; in [6] it was 12.11%; in [7], 5.0%; in data set [8], 17.88%; in data set [9], 9.88%. Moreover, the iNOS expression entry in data set [10] was “clear down-regulation”. In addition, the “cell growth inhibition or cell death” value in data set [11] is reported as “did not induce cell growth inhibition or cell death”.
